These results are taken from article PMC8708908.

The assay concerns the target EcDsbB (Escherichia coli DsbB) (E. coli (endogenous in E. coli JCB817)) (UniProt P0A6M2).
Sequence of UniProt P0A6M2 (P0A6M2 whole entry): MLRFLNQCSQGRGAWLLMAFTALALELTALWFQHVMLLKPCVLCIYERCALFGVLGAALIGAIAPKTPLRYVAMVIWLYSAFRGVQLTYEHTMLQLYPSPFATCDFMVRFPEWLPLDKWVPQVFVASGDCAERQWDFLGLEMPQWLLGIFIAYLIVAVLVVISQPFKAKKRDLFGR

As to “CjDsbA2 made in E. coli with the E. coli pelB signal sequence (ss'pelB-cjdsbA2 in pMPM-A6, pUWM1523) (enzyme)”, the redox state of CjDsbA2 (AMS labelling, Western blot) in E. coli JCB817 (ΔdsbA, with EcDsbB); in JCB818 (ΔdsbAΔdsbB) mostly in the reduced form (87%) (% oxidized form) was determined as 33.
